According to the Immune Epitope Database (IEDB):
Values belong to the sequence of their own block, whether it stands above or below them.

How the values were obtained:
HLA-A*30:01 = experiment: IEDB peptide-MHC binding, purified MHC/competitive/radioactivity; filed as Kd, often an IC50 or EC50 that approximates it; ≥ and ≤ were set here for values at or beyond the usual limits of such assays
HLA-A*02:01 [1] = experiment: IEDB peptide-MHC binding, purified MHC/competitive/fluorescence; ≥ and ≤ were set here for values at or beyond the usual limits of such assays
HLA-A*69:01 = experiment: IEDB peptide-MHC binding, purified MHC/direct/fluorescence; filed as Kd, often an IC50 or EC50 that approximates it; ≥ and ≤ were set here for values at or beyond the usual limits of such assays
HLA-A*02:01 [2] = experiment: as above
HLA-B*15:01 = experiment: as above
HLA-A*32:01 = experiment: IEDB peptide-MHC binding, purified MHC/competitive/radioactivity; filed as Kd, often an IC50 or EC50 that approximates it; ≥ and ≤ were set here for values at or beyond the usual limits of such assays
HLA-A*68:01 = experiment: as above; details: source organism: Dengue virus 3 Martinique/1243/1999
HLA-A*26:01 = experiment: as above
HLA-B*40:01 = experiment: IEDB peptide-MHC binding, purified MHC/direct/fluorescence; filed as Kd, often an IC50 or EC50 that approximates it; ≥ and ≤ were set here for values at or beyond the usual limits of such assays; details: source organism: Mycobacterium tuberculosis variant bovis
HLA-A*30:02 = experiment: IEDB peptide-MHC binding, purified MHC/competitive/radioactivity; filed as Kd, often an IC50 or EC50 that approximates it; ≥ and ≤ were set here for values at or beyond the usual limits of such assays
HLA-A*01:01 = experiment: IEDB peptide-MHC binding, purified MHC/direct/fluorescence; filed as Kd, often an IC50 or EC50 that approximates it; ≥ and ≤ were set here for values at or beyond the usual limits of such assays
HLA-A*03:01 = experiment: as above
HLA-B*58:01 = experiment: as above
HLA-A*11:01 = experiment: as above
HLA-A*02:03 = experiment: IEDB peptide-MHC binding, purified MHC/competitive/radioactivity; filed as Kd, often an IC50 or EC50 that approximates it; ≥ and ≤ were set here for values at or beyond the usual limits of such assays; details: source organism: Dengue virus 1 Singapore/S275/1990
HLA-B*27:05 = experiment: IEDB peptide-MHC binding, purified MHC/direct/fluorescence; filed as Kd, often an IC50 or EC50 that approximates it; ≥ and ≤ were set here for values at or beyond the usual limits of such assays; details: source organism: Mycobacterium avium 104
[3] = source organism: Dengue virus 1 Brazil/97-11/1997
[4] = source organism: Vaccinia virus WR
[5] = source organism: Zaire ebolavirus
[6] = source organism: Haemophilus influenzae
[7] = source organism: Vaccinia virus Copenhagen
[8] = source organism: Dengue virus 4 Philippines/H241/1956
[9] = source organism: Dengue virus 3 Martinique/1243/1999
[10] = source organism: Entamoeba histolytica HM-1:IMSS
[11] = source organism: Dengue virus 2 Jamaica/1409/1983
[12] = source organism: Sudan ebolavirus
[13] = source organism: Hepatitis C virus genotype 1
[14] = source organism: Vaccinia virus
[15] = source organism: Dengue virus 2 16681-PDK53
[16] = source organism: Human immunodeficiency virus type 1 (isolate YU2)
[17] = source organism: Escherichia coli
[18] = source organism: Vibrio vulnificus
[19] = source organism: Lassa virus Josiah

Sequence: AEALKGMPIR
Kd (HLA-A*30:01; [3]): 1260 nM

Sequence: AFGLYKSIN
IC50 (HLA-A*02:01 [1]; [4]): ≥ 245 µM

Sequence: AKLTEAITA
IC50 (HLA-A*02:01 [1]; [5]): 28.6 µM

Kd (HLA-A*69:01; [6]): 7.48 µM
Kd (HLA-A*02:01 [2]; [6]): 338 nM
Sequence: ALGYTTEEI

Kd (HLA-B*15:01; [6]): 834 nM
Kd (HLA-A*69:01; [6]): 3.43 µM
Kd (HLA-A*02:01 [2]; [6]): 435 nM
Sequence: AMVPLVMVI

Sequence: ATYEPDVDL
Kd (HLA-A*32:01; source organism: Dengue virus 2 Peru/IQT2913/1996): 7390 nM

Sequence: CFKPALPTL
Kd (HLA-A*30:01; [7]): 72 nM

Sequence: DARVYADPMA
Kd (HLA-A*30:01; [8]): 9270 nM

Sequence: DVFYLPPEK
Kd (HLA-A*30:01; [9]): 1370 nM
Kd (HLA-A*68:01): 5.57 nM

Sequence: EDMLSVWNRV
Kd (HLA-A*32:01; [3]): ≥ 34400 nM

Sequence: ELNYVLWEGG
Kd (HLA-A*32:01; [8]): 9340 nM

Sequence: ETENILTVL
Kd (HLA-A*26:01; [9]): 2940 nM

Sequence: FEGIAVLGL
Kd (HLA-B*40:01): 67.6 nM

Sequence: FLWVIILFQ
IC50 (HLA-A*02:01 [1]; [5]): 12.7 µM

Sequence: GAVKYLEGH
IC50 (HLA-A*02:01 [1]; [5]): ≥ 521 µM

Sequence: GMLECGFPT
Kd (HLA-A*69:01; [10]): ≥ 5 µM
Kd (HLA-A*02:01 [2]; [10]): 4.8 nM

Sequence: GRLITVNPIV
Kd (HLA-A*30:01; [11]): ≥ 20400 nM

Sequence: GTLEFTPID
IC50 (HLA-A*02:01 [1]; [4]): ≥ 132 µM

Sequence: GVKRLEELL
IC50 (HLA-A*02:01 [1]; [5]): 49.2 µM

Sequence: GVVTKNGGY
Kd (HLA-A*30:02; [9]): ≥ 61300 nM
Kd (HLA-A*26:01; [9]): 1210 nM

Sequence: HINALEYII
Kd (HLA-A*32:01; [4]): 631 nM

Sequence: HLMFYTLPI
Kd (HLA-A*32:01; [4]): 0.177 nM

Sequence: HTRDPQNAA
Kd (HLA-A*30:01; [4]): 0.907 nM

Sequence: HWFSRENSY
Kd (HLA-A*30:02; [9]): 246 nM

Sequence: IGNEEFLDY
Kd (HLA-A*30:02; [9]): 961 nM

Sequence: IIHDFIDNP
IC50 (HLA-A*02:01 [1]; [12]): ≥ 85.4 µM

Sequence: IMAKNEVFCV
IC50 (HLA-A*02:01 [1]; [13]): 5 µM

Sequence: IQGTLAKAY
Kd (HLA-B*15:01; source organism: Rickettsia prowazekii): 215 nM

Sequence: ISEKLRSGY
Kd (HLA-A*01:01; source organism: Influenza A virus (A/Kinmen/645/04(H3N2))): 467 nM

Sequence: IVREAIKRK
Kd (HLA-A*30:01; [3]): 97.7 nM

Sequence: KAKGSRAIWY
Kd (HLA-A*30:02; [11]): 6.68 nM

Sequence: KIKDVSYND
IC50 (HLA-A*02:01 [1]; [14]): ≥ 571 µM

Sequence: KLITFLFVI
Kd (HLA-A*32:01; [4]): 0.409 nM

Sequence: KLKFRFIIR
Kd (HLA-A*30:01; [4]): 119 nM

Sequence: KLKIALAKG
Kd (HLA-A*30:01; [4]): 479 nM

Sequence: KLKPRWLDA
Kd (HLA-A*30:01; [11]): 21 nM

Sequence: KMEALQRKY
Kd (HLA-A*30:02; [15]): 61.4 nM

Sequence: KMSILGVSI
Kd (HLA-A*32:01; [4]): 2.36 nM

Sequence: KNENDQYIY
Kd (HLA-A*30:02; [11]): 0.15 nM

Kd (HLA-A*03:01; source organism: Homo sapiens): 18.7 µM
Kd (HLA-B*58:01; source organism: Homo sapiens): 220 nM
Kd (HLA-A*01:01; source organism: Homo sapiens): 55 nM
Kd (HLA-A*69:01; source organism: Homo sapiens): 1.33 µM
Sequence: KSDLQPPNY

Sequence: KSWGKAKII
Kd (HLA-A*32:01; [3]): 47.4 nM

Sequence: KTISMLIEV
Kd (HLA-A*30:01; [4]): 580 nM

Sequence: KTSCSKNEA
Kd (HLA-A*30:01; [4]): 72.2 nM

Sequence: KVKSYNYML
Kd (HLA-A*30:01; [4]): 0.175 nM

Sequence: KVLFLQQSI
Kd (HLA-A*32:01; [4]): 0.704 nM

Sequence: KVYINHPFM
Kd (HLA-A*30:01; [4]): 0.517 nM

Sequence: LMDMITLSL
Kd (HLA-A*32:01; [4]): 29.7 nM

Sequence: LMHAPAFET
IC50 (HLA-A*02:01 [1]; source organism: Human alphaherpesvirus 1 strain 17): 2 µM

Sequence: LQRGRLPLV
Kd (HLA-A*30:01; [4]): 93.3 nM

Sequence: LTFNFTPKI
Kd (HLA-A*32:01; [4]): 110 nM

Sequence: LVSKFMSNG
IC50 (HLA-A*02:01 [1]; [4]): ≥ 201 µM

Sequence: LWRTLGRNK
Kd (HLA-A*30:01; [9]): 478 nM

Kd (HLA-B*15:01; source organism: Homo sapiens): 1440 nM
Kd (HLA-A*03:01; source organism: Homo sapiens): 13.6 µM
Kd (HLA-B*58:01; source organism: Homo sapiens): 937 nM
Kd (HLA-A*11:01; source organism: Homo sapiens): 8.41 µM
Kd (HLA-A*01:01; source organism: Homo sapiens): 3330 nM
Sequence: MCFHQHLMY

Sequence: MLVCGDDLV
IC50 (HLA-A*02:01 [1]; [13]): 5 µM

Sequence: MTMNIVNFF
Kd (HLA-A*32:01; [4]): 1.93 nM

Sequence: MYKLNKPTK
Kd (HLA-A*01:01; source organism: Camelpox virus M-96): ≥ 20000 nM

Sequence: NAICSAVPSH
Kd (HLA-A*30:01; [11]): 6440 nM

Sequence: PLGVVTNST
IC50 (HLA-A*02:01 [1]; [12]): ≥ 114 µM

Sequence: PLNEGIMAV
Kd (HLA-A*69:01; source organism: dengue virus type 1): ≥ 5 µM
Kd (HLA-A*02:03): 118 nM

Sequence: PQLSAIALG
IC50 (HLA-A*02:01 [1]; [5]): ≥ 423 µM

Sequence: QLLLQKYPP
IC50 (HLA-A*02:01 [1]; [14]): ≥ 93.6 µM

Sequence: QVCIDILRS
IC50 (HLA-A*02:01 [1]; [14]): ≥ 97.1 µM

Sequence: QVDQGIEYY
Kd (HLA-A*01:01; source organism: Mycobacterium tuberculosis): 119 nM

Sequence: RAVLDDGIY
Kd (HLA-A*30:02; [3]): 44.8 nM

Sequence: RFKKESSLA
Kd (HLA-A*30:01; [4]): 0.305 nM

Sequence: RFRKKKKVY
Kd (HLA-A*01:01; source organism: Listeria monocytogenes): ≥ 20000 nM

Sequence: RGTTFAEGV
IC50 (HLA-A*02:01 [1]; [5]): 9.3 µM

Sequence: RIKQIINMW
Kd (HLA-A*03:01; [16]): 3.66 µM
Kd (HLA-B*58:01; [16]): 884 nM
Kd (HLA-A*01:01; [16]): 5560 nM

Kd (HLA-A*69:01; [17]): ≥ 20 µM
Kd (HLA-A*02:01 [2]; [17]): 418 nM
Sequence: RILAYGPCL

Sequence: RIYSDPLAL
Kd (HLA-A*32:01; [11]): 14100 nM

Sequence: RRLVKVLNN
Kd (HLA-B*27:05): 4.37 µM

Sequence: RSCTLPPLRY
Kd (HLA-A*30:02; [11]): 15.5 nM

Sequence: RTIFNFHLI
Kd (HLA-A*32:01; [4]): 2.09 nM

Sequence: RTNNAELDF
Kd (HLA-A*32:01; [4]): 131 nM

Sequence: RTYGLRNSL
Kd (HLA-A*32:01; [4]): 0.626 nM

Sequence: RYRFAFLYL
Kd (HLA-A*30:01; [4]): 0.169 nM

Sequence: RYRQRLISL
Kd (HLA-A*30:01; [4]): 5.17 nM

Sequence: SGVLWDVPSP
Kd (HLA-A*30:01; [9]): 3670 nM

Sequence: SSSTEVETY
Kd (HLA-B*58:01; source organism: Influenza A virus (A/New York/124/2001(H3N2))): 495 nM

Sequence: SVIEKMEAL
Kd (HLA-A*26:01; [15]): 51 nM

Sequence: SVRLLNYFK
Kd (HLA-A*30:01; [4]): 0.238 nM

Sequence: TFKNPHAKK
Kd (HLA-A*30:01; [11]): 1460 nM

Sequence: TLCDMIKGT
IC50 (HLA-A*02:01 [1]; [14]): 23 µM

Sequence: TTKATTQIA
Kd (HLA-A*30:01; [4]): 6.52 nM

Sequence: TTTLEETKF
Kd (HLA-B*58:01; source organism: SARS-CoV1): 11700 nM
Kd (HLA-A*11:01; source organism: SARS-CoV1): ≥ 109 µM

Sequence: VHSWEDIPY
Kd (HLA-A*30:02; [8]): 3360 nM

Sequence: VIMEYHLLF
Kd (HLA-A*32:01; [7]): ≥ 77800 nM

Sequence: VLTLATGPIL
Kd (HLA-A*30:01; source organism: Dengue virus 4 Dominica/814669/1981): 1330 nM

Sequence: VQLLGRRFV
Kd (HLA-A*69:01; [18]): ≥ 20 µM
Kd (HLA-A*02:01 [2]; [18]): ≥ 20000 nM

Sequence: VSNRCPICK
Kd (HLA-A*03:01; [19]): 0.882 µM
Kd (HLA-A*11:01; [19]): 0.0472 µM

Sequence: WAFWETKKN
IC50 (HLA-A*02:01 [1]; [5]): ≥ 212 µM
